The text below walks through data of patent US20100166741A1 (Genentech, published 2010).

Assay [1] addresses T1, human FcγRI extracellular domain, His-tagged GST fusion (human, UniProt P12314 16-292).
T1 construct: extracellular domain; also called hFcgRI; FcγRIA; not shown: C-terminal Gly/His6/GST tag
In words: ELISA, captured FcγR-GST, monomeric IgG.

Assay [2] addresses T2, human FcγRIIb extracellular domain, His-tagged GST fusion (human, UniProt P31994 43-217).
T2 construct: extracellular domain; also called hFcgRIIb; CD32B; not shown: C-terminal Gly/His6/GST tag
T2 sequence (looked up): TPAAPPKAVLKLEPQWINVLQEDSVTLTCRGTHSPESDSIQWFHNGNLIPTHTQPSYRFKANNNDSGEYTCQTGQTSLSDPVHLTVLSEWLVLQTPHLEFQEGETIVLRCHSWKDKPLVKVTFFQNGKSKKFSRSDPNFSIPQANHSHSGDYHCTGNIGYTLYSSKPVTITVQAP
In words: ELISA, captured FcγR-GST, multimeric IgG. A general note: In an ELISA, binding on a coated surface is turned into a signal by an enzyme label.

In assay [3] the target is T3, human FcγRIIIa (F158) extracellular domain, His-tagged GST fusion (human, UniProt P08637 17-208).
T3 construct: extracellular domain; also called hFcgRIII (F158); FcγRIII (F158 allele); not shown: C-terminal Gly/His6/GST tag
In words: ELISA, captured FcγR-GST, multimeric IgG.

Assay [4] deals with T4, human FcγRIIIa (V158) extracellular domain, His-tagged GST fusion (human, UniProt P08637 17-208).
T4 construct: extracellular domain; also called hFcgRIII (V158); FcγRIII (V158 allele); not shown: C-terminal Gly/His6/GST tag
Put plainly: ELISA, captured FcγR-GST, multimeric IgG.

In assay [5] the target is T5, human FcγRIIa extracellular domain, His-tagged GST fusion (human, UniProt P12318 34-217).
T5 construct: extracellular domain; also called hFcgRIIa; CD32A; not shown: C-terminal Gly/His6/GST tag
T5 sequence (looked up): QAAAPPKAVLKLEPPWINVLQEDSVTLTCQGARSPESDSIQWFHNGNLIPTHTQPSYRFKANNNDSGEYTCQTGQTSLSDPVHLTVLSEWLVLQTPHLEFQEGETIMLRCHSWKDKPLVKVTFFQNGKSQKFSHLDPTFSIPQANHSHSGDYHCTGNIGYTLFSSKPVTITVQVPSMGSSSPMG
In words: ELISA, captured FcγR-GST, multimeric IgG.

Assay [6] addresses T6, mouse FcγRI extracellular domain, His-tagged GST fusion (mouse, UniProt P26151 25-297).
T6 construct: extracellular domain; also called Mouse I; mFcγRI; not shown: His tag and GST
T6 sequence (looked up): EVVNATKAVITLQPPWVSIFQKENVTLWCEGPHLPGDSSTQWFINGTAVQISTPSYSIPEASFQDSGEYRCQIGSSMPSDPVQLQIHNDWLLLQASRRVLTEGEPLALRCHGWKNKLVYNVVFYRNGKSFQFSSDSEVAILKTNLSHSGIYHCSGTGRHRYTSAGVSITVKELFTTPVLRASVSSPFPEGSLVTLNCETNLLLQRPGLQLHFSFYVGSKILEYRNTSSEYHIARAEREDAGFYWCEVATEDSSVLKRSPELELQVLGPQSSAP
Put plainly: Fcγ receptor ELISA; bar = fold change in binding relative to Herceptin (EC50 Herceptin/EC50 sample), log axis 0.1-100.

Assay [7] addresses T7, mouse FcγRII extracellular domain, His-tagged GST fusion (mouse, UniProt P08101 30-210).
T7 construct: extracellular domain; also called Mouse II; not shown: His tag and GST
T7 sequence (looked up): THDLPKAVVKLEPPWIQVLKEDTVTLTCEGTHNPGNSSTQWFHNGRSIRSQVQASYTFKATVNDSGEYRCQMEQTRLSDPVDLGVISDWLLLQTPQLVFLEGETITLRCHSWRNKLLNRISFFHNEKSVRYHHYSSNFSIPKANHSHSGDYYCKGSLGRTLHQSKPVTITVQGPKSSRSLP
The assay is described as above.

For assay [8], the target named is T8, mouse FcγRIII extracellular domain, His-tagged GST fusion (mouse, UniProt P08508 31-215).
T8 construct: extracellular domain; also called Mouse III; not shown: His tag and GST
T8 sequence (looked up): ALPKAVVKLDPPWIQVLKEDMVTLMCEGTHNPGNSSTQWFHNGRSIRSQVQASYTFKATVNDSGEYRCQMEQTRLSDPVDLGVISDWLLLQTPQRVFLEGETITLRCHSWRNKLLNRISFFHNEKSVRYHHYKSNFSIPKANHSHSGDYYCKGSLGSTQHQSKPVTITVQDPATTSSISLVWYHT
The description is as above.

T4 sequence (P08637 17-208 F176V): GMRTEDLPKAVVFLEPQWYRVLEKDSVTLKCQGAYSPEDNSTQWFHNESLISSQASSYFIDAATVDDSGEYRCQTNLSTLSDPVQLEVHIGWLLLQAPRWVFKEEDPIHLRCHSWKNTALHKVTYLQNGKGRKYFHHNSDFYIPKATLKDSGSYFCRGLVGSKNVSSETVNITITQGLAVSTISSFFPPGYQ
T3 sequence (P08637 17-208): as the sequence (P08637 17-208 F176V) above, with V160F counted along it

B1: V3-46s IgG (antibody)
heavy: not shown
light: DIQMTQSPSSLSASVGDRVTITCRASQDVSTAVAWYQQKPGKAPKLLIYSASFLYSGVPSRFSGSGSGTDFTLTISSLQPEDFATYYCQQSQISPPTFGQGTKVEIKRTVAAPSVFIFPPSDEQLKSGTASVVCLLNNFYPREAKVQWKVDNALQSGNSQESVTEQDSKDSTYSLSSTLTLSKADYEKHKVYACEVTHQGLSSPVTKSFNRGEC
notes: also called HV3-46S; HV3-46S-Bulk
Regarding B1, the concentration for a half-maximal effect (EC50) (commonly the concentration at which the effect is half-maximal) stood at 0.00158 µg/mL in assay [1]; 1.02 µg/mL in assay [2]; 1.52 µg/mL in assay [3]; 0.28 µg/mL in assay [4]; 0.3 µg/mL in assay [5]. Also, the binding result in assay [6], in assay [7] and in assay [8] was “binds” each time.
